This note sets out measurements from the Immune Epitope Database (IEDB).

Assay [1] has as its target HLA-B*40:01. Put plainly: IEDB peptide-MHC binding, purified MHC/competitive/radioactivity; filed as Kd, often an IC50 or EC50 that approximates it; ≥ and ≤ were set here for values at or beyond the usual limits of such assays.
The target in assay [2] is HLA-A*02:01. As to the kind of experiment: IEDB peptide-MHC binding, purified MHC/competitive/fluorescence; filed as Kd, often an IC50 or EC50 that approximates it; ≥ and ≤ were set here for values at or beyond the usual limits of such assays.
The target in assay [3] is HLA-B*07:02. As to the kind of experiment: IEDB peptide-MHC binding, purified MHC/direct/fluorescence; filed as Kd, often an IC50 or EC50 that approximates it; ≥ and ≤ were set here for values at or beyond the usual limits of such assays.
The target of assay [4] is HLA-A*02:01. The assay is described as above.
Assay [5] has as its target HLA-A*69:01. The assay is described as above.
Assay [6] addresses HLA-A*32:01. As to the kind of experiment: IEDB peptide-MHC binding, purified MHC/competitive/radioactivity; filed as Kd, often an IC50 or EC50 that approximates it; ≥ and ≤ were set here for values at or beyond the usual limits of such assays.
Assay [7] deals with HLA-A*01:01. Put plainly: IEDB peptide-MHC binding, purified MHC/direct/fluorescence; filed as Kd, often an IC50 or EC50 that approximates it; ≥ and ≤ were set here for values at or beyond the usual limits of such assays.
The target in assay [8] is HLA-A*11:01. Described as above. Conditions: source organism: Homo sapiens.
In assay [9] the target is HLA-B*15:01. The assay is described as above. Conditions: source organism: Homo sapiens.
The target in assay [10] is HLA-B*58:01. The description is as above.
The target in assay [11] is HLA-A*01:01. Put plainly: IEDB peptide-MHC binding, purified MHC/competitive/radioactivity; filed as Kd, often an IC50 or EC50 that approximates it; ≥ and ≤ were set here for values at or beyond the usual limits of such assays.
The target in assay [12] is HLA-A*23:01. Described as above.
The target in assay [13] is HLA-A*24:02. The description is as above.
For assay [14], the target named is HLA-A*26:01. The assay is described as above.
Assay [15] addresses HLA-A*29:02. Described as above.
In assay [16] the target is HLA-A*30:02. The description is as above.
The target of assay [17] is HLA-B*44:03. Described as above.
The mark [18] stands for this setting: source organism: Dengue virus 4 Philippines/H241/1956.
Where [19] appears, read: source organism: Entamoeba histolytica HM-1:IMSS.
Setting [20] is: source organism: Mycobacterium tuberculosis.
Setting [21] is: source organism: Dengue virus 3 Martinique/1243/1999.
[22] abbreviates: source organism: Clostridium botulinum.
[23] abbreviates: source organism: Vaccinia virus Copenhagen.
The mark [24] stands for this setting: source organism: Vaccinia virus WR.
The mark [25] stands for this setting: source organism: SARS coronavirus Tor2.
The mark [26] stands for this setting: source organism: Dengue virus 2 Jamaica/1409/1983.
Where [27] appears, read: source organism: Mammarenavirus guanaritoense.
[28] abbreviates: source organism: Marburg virus - Musoke, Kenya, 1980.

In the case of LEIDFGECPG, the Kd in assay [1] (setting [18]) is 10200 nM.

Sequence HLGNVKYLV yielded a Kd in assay [2] (source organism: Plasmodium falciparum) of 6.5 nM.

LLWKTWYPC: the Kd in [3] (source organism: Homo sapiens) stood at 14600 nM.

Turning to FEEYKRSGIL, the dissociation constant (Kd) in [1] (setting [18]) turned out to be 18.7 nM.

KLYDSVYLT: the Kd was 7.6 nM in [4] (setting [19]) and at least 20000 nM in assay [5] (setting [19]).

GVSGGAWVDL: in assay [6] (setting [18]), the Kd is at least 69900 nM.

With FLWWNAAPA, in [5] (setting [20]), the dissociation constant Kd was at most 1 nM.

Consider RQVEKVETW, for which, in assay [6] (setting [21]), the Kd worked out at 79.6 nM.

Consider ISLICGHSY, for which the Kd was determined as 11000 nM in assay [7] (source organism: Homo sapiens); 8980 nM in [8]; 5280 nM in assay [5] (source organism: Homo sapiens); 17400 nM in assay [3] (source organism: Homo sapiens); 108 nM in assay [9]; 22 nM in assay [10] (source organism: Homo sapiens).

Take MIRAQAGSL: in assay [3] (setting [20]), the Kd was determined as 33.5 nM.

Regarding FLWSSIIFK, the Kd in assay [4] (setting [22]) came out at 4430 nM; in assay [5] (setting [22]) it was 7000 nM.

SVNSFTLLI: the Kd in assay [6] (setting [23]) worked out at 2.63 nM.

In the case of EVDPIGHLY, the Kd in assay [8] was 3360 nM; in assay [5] (source organism: Homo sapiens) it was 4390 nM; in assay [9] it was 3710 nM.

For LLNNSLGSV, the equilibrium dissociation constant (Kd) in assay [2] (setting [23]) is 3.6 nM.

Take RTYSDPLAL: the Kd in assay [6] (source organism: Dengue virus 1 Brazil/97-11/1997) is 33.4 nM.

With LSDHQDLKW, the Kd in assay [7] (source organism: SARS-CoV1) stood at 818 nM; in [10] (source organism: SARS-CoV1), 26.6 nM.

Regarding ALATFTVNI, the Kd in assay [6] (setting [24]) turned out to be 6.07 nM.

As to YYQLESTQI, the Kd is at least 52800 nM in assay [11] (setting [25]); 126 nM in assay [12] (setting [25]); 7.7 nM in assay [13] (setting [25]); at least 77900 nM in assay [14] (setting [25]); 247 nM in [15] (setting [25]); at least 81100 nM in assay [16] (setting [25]).

QYGSFCTQL: the Kd was at least 78100 nM in assay [11] (setting [25]); at least 75400 nM in assay [12] (setting [25]); at least 107000 nM in assay [13] (setting [25]); at least 77900 nM in [14] (setting [25]); at least 78900 nM in assay [15] (setting [25]); at least 93800 nM in assay [16] (setting [25]).

As to IGFLVLWIGT, the Kd in assay [6] (setting [18]) is at least 69900 nM.

On to EYADVFHLYL, for which the Kd in assay [11] (setting [25]) stood at 85.5 nM; in assay [12] (setting [25]) it was 9.55 nM; in [13] (setting [25]) it was 16.7 nM; in assay [14] (setting [25]), 1970 nM; in [15] (setting [25]), 160 nM; in assay [16] (setting [25]) it was 1350 nM.

Take RETACLGKAY: in assay [17] (setting [21]), the Kd stood at 17.9 nM.

As to MEVEIWTRE, the Kd in assay [17] (setting [18]) was 1080 nM.

For ELSPRWYFYY, the Kd in assay [11] (setting [25]) stood at 91.4 nM; in assay [12] (setting [25]), 8810 nM; in assay [13] (setting [25]), 9440 nM; in assay [14] (setting [25]), 4.04 nM; in assay [15] (setting [25]), 8.01 nM; in assay [16] (setting [25]), 60.1 nM.

For the sequence ISQHQHLAI, the Kd in assay [6] (setting [24]) stood at 107 nM.

With KEIGRMLNIL, the Kd in [1] (setting [26]) amounted to 4.83 nM.

In the case of LKILVLSIL, the Kd in [11] (setting [27]) was 272 nM; in [12] (setting [27]), 11100 nM; in assay [13] (setting [27]) it was 1830 nM; in assay [14] (setting [27]), at least 32600 nM; in assay [15] (setting [27]), 15100 nM; in assay [16] (setting [27]), 11000 nM.

In the case of PTTTYTLEY, in assay [7] (setting [20]), the Kd turned out to be 14.2 nM.

As to ITDVIVQSI, in assay [6] (setting [24]), the Kd came to 256 nM.

Consider FSSLPSYAAY, for which the Kd in assay [11] (setting [25]) was 2.04 nM; in assay [12] (setting [25]), at least 70000 nM; in assay [13] (setting [25]), at least 70300 nM; in assay [14] (setting [25]) it was 261 nM; in [15] (setting [25]), 8.85 nM; in assay [16] (setting [25]) it was 2.77 nM.

Take MLAKYDHLV: the Kd in assay [4] (setting [28]) came to 27 nM; in assay [5] (setting [28]) it was 104 nM.

Regarding ILLFVIVIY, in assay [6] (setting [24]), the Kd amounted to 952 nM.

KEENLVNSL: the dissociation constant (Kd) in assay [1] (setting [26]) came to 2.17 nM.

For ITFLRVLSI, the Kd in assay [6] (setting [18]) was 100 nM.

Usually Kd stands for the free concentration of one partner at which half of the binding sites on the other are occupied at equilibrium, for simple one-to-one binding.
